Laboratory results as given in patent US20190038660.

System: ZF6-DBD (Artificial Sequence)
Assay: cell_activity
Conditions: in vivo porcine retina, AAV8 DBR-R vector 1x10^12 gc, hRHO-s-ΔZF6 promoter, qPCR 2 months after delivery; binding inferred from repression, not measured …

Chain of ZF6-DBD (Artificial Sequence) (chain, as listed by the source): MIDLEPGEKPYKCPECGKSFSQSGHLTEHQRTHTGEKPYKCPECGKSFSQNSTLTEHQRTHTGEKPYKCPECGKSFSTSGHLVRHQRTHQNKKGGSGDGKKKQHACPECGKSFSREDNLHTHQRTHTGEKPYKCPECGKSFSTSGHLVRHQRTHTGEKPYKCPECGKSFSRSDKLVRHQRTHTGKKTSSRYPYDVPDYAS

porcine Rhodopsin proximal promoter (ZF6 target region)
activity (% repression of Rho transcript): 35
